Patent US20230002480A1

Tests used:
Experiment in all cases: cell-based or functional assay
[1] = target: HIV-1 Env of pseudovirus 6540.v4.c1 (clade AC) (HIV-1)
[2] = target: HIV-1 Env of pseudovirus 231966.c02 (clade D) (HIV-1)
[3] = target: HIV-1 Env of pseudovirus 89-F1_2_25 (clade CD) (HIV-1)
[4] = target: HIV-1 Env of pseudovirus P1981_C5_3 (clade G) (HIV-1)
[5] = target: HIV-1 Env of pseudovirus X1254_c3 (clade G) (HIV-1)
[6] = target: HIV-1 Env of pseudovirus 6041.v3.c23 (clade AC) (HIV-1)
[7] = target: HIV-1 Env of pseudovirus 0815.v3.c3 (clade ACD) (HIV-1)
[8] = target: HIV-1 Env of pseudovirus 3103.v3.c10 (clade ACD) (HIV-1)
[9] = target: HIV-1 Env of pseudovirus C2101.c01 (clade CRF01_AE) (HIV-1)
[10] = target: HIV-1 Env of pseudovirus 3301.v1.c24 (clade AC) (HIV-1)
[11] = target: HIV-1 Env of pseudovirus 6480.v4.c25 (clade CD) (HIV-1)
[12] = target: HIV-1 Env of pseudovirus X2131_C1_B5 (clade G) (HIV-1)
[13] = target: HIV-1 Env of pseudovirus Ce704809221_1B3 (HIV-1)
[14] = target: HIV-1 Env of pseudovirus 231965.c01 (clade D) (HIV-1)
[15] = target: HIV-1 Env of pseudovirus 3817.v2.c59 (clade CD) (HIV-1)
[16] = target: HIV-1 Env of pseudovirus BF1266.431a (HIV-1)
[17] = target: HIV-1 Env of pseudovirus 6952.v1.c20 (clade CD) (HIV-1)
[18] = target: HIV-1 Env of pseudovirus 6545.v4.c1 (clade AC) (HIV-1)
[19] = target: HIV-1 Env of pseudovirus 3016.v5.c45 (clade D) (HIV-1)
[20] = target: HIV-1 Env of pseudovirus 6811.v7.c18 (clade CD) (HIV-1)
[21] = target: HIV-1 Env of pseudovirus A07412M1.vrc12 (clade D) (HIV-1)
[22] = target: HIV-1 Env of pseudovirus X1632_S2_B10 (clade G) (HIV-1)
[23] = target: HIV-1 Env of pseudovirus Q769.d22 (HIV-1)
[24] = target: HIV-1 Env of pseudovirus BJOX015000.11.5 (HIV-1)
[25] = target: HIV-1 Env of pseudovirus 3415.v1.c1 (HIV-1)
[26] = target: HIV-1 Env of pseudovirus X2088_c9 (HIV-1)
[27] = target: HIV-1 Env of pseudovirus CNE52 (clade BC) (HIV-1)
[28] = target: HIV-1 Env of pseudovirus CNE19 (clade BC) (HIV-1)
[29] = target: HIV-1 Env of pseudovirus RHPA4259.7 (clade B) (HIV-1)
[30] = target: HIV-1 Env of pseudovirus 0815.v3.c3 (HIV-1)
[31] = target: HIV-1 Env of pseudovirus WITO4160.33 (clade B) (HIV-1)
[32] = target: HIV-1 Env of pseudovirus WEAU_d15_410_787 (clade B (T/F)) (HIV-1)
[33] = target: HIV-1 Env pseudovirus C1080.c03 (HIV-1)
[34] = target: HIV-1 Env pseudovirus T255-34 (HIV-1)

Substance: 10E8 (antibody)
- IC50, titer in TZM.bl cells [1]: 1.9 µg/mL
- IC80, titer in TZM.bl cells [1]: 10 µg/mL
- IC50, titer in TZM.bl cells [2]: 0.191 µg/mL
- IC80, titer in TZM.bl cells [2]: 3.13 µg/mL
- IC50, titer in TZM.bl cells [3]: 1.11 µg/mL
- IC80, titer in TZM.bl cells [3]: 10 µg/mL
- IC50, titer in TZM.bl cells [4]: 0.057 µg/mL
- IC80, titer in TZM.bl cells [4]: 0.285 µg/mL
- IC50, titer in TZM.bl cells [5]: 4.75 µg/mL
- IC80, titer in TZM.bl cells [5]: > 10 µg/mL
- IC50, titer in TZM.bl cells [6]: 2.33 µg/mL
- IC80, titer in TZM.bl cells [6]: 9.77 µg/mL
- IC50, titer in TZM.bl cells [7]: 0.332 µg/mL
- IC80, titer in TZM.bl cells [7]: 2.87 µg/mL
- IC50, titer in TZM.bl cells [8]: > 10 µg/mL
- IC80, titer in TZM.bl cells [8]: > 10 µg/mL
- IC50, titer in TZM.bl cells [9]: 1.92 µg/mL
- IC80, titer in TZM.bl cells [9]: 8.26 µg/mL
- IC50, titer in TZM.bl cells [10]: 4.63 µg/mL
- IC80, titer in TZM.bl cells [10]: > 10 µg/mL
- IC50, titer in TZM.bl cells [11]: 8.08 µg/mL
- IC80, titer in TZM.bl cells [11]: > 10 µg/mL
- IC50, titer in TZM.bl cells [12]: 0.189 µg/mL
- IC80, titer in TZM.bl cells [12]: 0.974 µg/mL
- IC50, titer in TZM.bl cells [13]: 0.058 µg/mL
- IC80, titer in TZM.bl cells [13]: 0.319 µg/mL
- IC50, titer in TZM.bl cells [14]: > 10 µg/mL
- IC80, titer in TZM.bl cells [14]: > 10 µg/mL
- IC50, titer in TZM.bl cells [15]: 1.18 µg/mL
- IC80, titer in TZM.bl cells [15]: 5.98 µg/mL
- IC50, titer in TZM.bl cells [16]: 2.69 µg/mL
- IC80, titer in TZM.bl cells [16]: > 10 µg/mL
- IC50, titer in TZM.bl cells [17]: 0.343 µg/mL
- IC80, titer in TZM.bl cells [17]: 1.91 µg/mL
- IC50, titer in TZM.bl cells [18]: 1.78 µg/mL
- IC80, titer in TZM.bl cells [18]: 8.23 µg/mL
- IC50, titer in TZM.bl cells [19]: 0.476 µg/mL
- IC80, titer in TZM.bl cells [19]: 4.39 µg/mL
- IC50, titer in TZM.bl cells [20]: 7.54 µg/mL
- IC80, titer in TZM.bl cells [20]: > 10 µg/mL
- IC50, titer in TZM.bl cells [21]: 0.576 µg/mL
- IC80, titer in TZM.bl cells [21]: 6.05 µg/mL
- IC50, titer in TZM.bl cells [22]: 1.98 µg/mL
- IC80, titer in TZM.bl cells [22]: 9.68 µg/mL
- IC50, titer in TZM.bl cells [23]: 1.67 µg/mL
- IC80, titer in TZM.bl cells [23]: 10 µg/mL

Substance: N49P7.1 (antibody)
- IC50, neutralization titer in TZM.bl cells [1]: 14.7 µg/mL
- IC80, neutralization titer in TZM.bl cells [1]: > 50 µg/mL
- MPI, neutralization in TZM.bl cells [1]: 75
- IC50, neutralization titer in TZM.bl cells [2]: 0.203 µg/mL
- IC80, neutralization titer in TZM.bl cells [2]: 0.705 µg/mL
- MPI, neutralization in TZM.bl cells [2]: 100
- IC50, neutralization titer in TZM.bl cells [3]: 41.6 µg/mL
- IC80, neutralization titer in TZM.bl cells [3]: > 50 µg/mL
- MPI, neutralization in TZM.bl cells [3]: 58
- IC50, neutralization titer in TZM.bl cells [4]: 0.216 µg/mL
- IC80, neutralization titer in TZM.bl cells [4]: 0.494 µg/mL
- MPI, neutralization in TZM.bl cells [4]: 100
- IC50, neutralization titer in TZM.bl cells [6]: 0.078 µg/mL
- IC80, neutralization titer in TZM.bl cells [6]: 0.366 µg/mL
- MPI, neutralization in TZM.bl cells [6]: 100
- IC50, neutralization titer in TZM.bl cells [7]: 0.023 µg/mL
- IC80, neutralization titer in TZM.bl cells [7]: 0.064 µg/mL
- MPI, neutralization in TZM.bl cells [7]: 100
- IC50, neutralization titer in TZM.bl cells [8]: 0.229 µg/mL
- IC80, neutralization titer in TZM.bl cells [8]: 0.772 µg/mL
- MPI, neutralization in TZM.bl cells [8]: 100
- neutralization IC50 [24]: 0.111 µg/mL
- neutralization IC80 [24]: 0.487 µg/mL
- neutralization MPI [24]: 100
- IC50, neutralization titer in TZM.bl cells [10]: 0.041 µg/mL
- IC80, neutralization titer in TZM.bl cells [10]: 0.111 µg/mL
- MPI, neutralization in TZM.bl cells [10]: 100
- IC50, neutralization titer in TZM.bl cells [11]: 0.056 µg/mL
- IC80, neutralization titer in TZM.bl cells [11]: 0.192 µg/mL
- MPI, neutralization in TZM.bl cells [11]: 100
- IC50, neutralization titer in TZM.bl cells [12]: 0.129 µg/mL
- IC80, neutralization titer in TZM.bl cells [12]: 0.431 µg/mL
- MPI, neutralization in TZM.bl cells [12]: 100
- neutralization IC50 [13]: 0.211 µg/mL
- neutralization IC80 [13]: 1.35 µg/mL
- neutralization MPI [13]: 100
- neutralization IC50 [25]: 0.191 µg/mL
- neutralization IC80 [25]: 0.647 µg/mL
- neutralization MPI [25]: 100
- neutralization IC50 [26]: 0.199 µg/mL
- neutralization IC80 [26]: 0.726 µg/mL
- neutralization MPI [26]: 100
- IC50, neutralization titer in TZM.bl cells [14]: 0.106 µg/mL
- IC80, neutralization titer in TZM.bl cells [14]: 0.364 µg/mL
- MPI, neutralization in TZM.bl cells [14]: 100
- IC50, neutralization titer in TZM.bl cells [15]: 1.48 µg/mL
- IC80, neutralization titer in TZM.bl cells [15]: 8.36 µg/mL
- MPI, neutralization in TZM.bl cells [15]: 97
- neutralization IC50 [16]: 0.033 µg/mL
- neutralization IC80 [16]: 0.11 µg/mL
- neutralization MPI [16]: 100
- IC50, neutralization titer in TZM.bl cells [17]: 26.3 µg/mL
- IC80, neutralization titer in TZM.bl cells [17]: > 50 µg/mL
- MPI, neutralization in TZM.bl cells [17]: 71
- IC50, neutralization titer in TZM.bl cells [18]: 1.15 µg/mL
- IC80, neutralization titer in TZM.bl cells [18]: 16 µg/mL
- MPI, neutralization in TZM.bl cells [18]: 92
- IC50, neutralization titer in TZM.bl cells [19]: 0.559 µg/mL
- IC80, neutralization titer in TZM.bl cells [19]: 2.54 µg/mL
- MPI, neutralization in TZM.bl cells [19]: 100
- IC50, neutralization titer in TZM.bl cells [20]: 0.321 µg/mL
- IC80, neutralization titer in TZM.bl cells [20]: 1.46 µg/mL
- MPI, neutralization in TZM.bl cells [20]: 100
- IC50, neutralization titer in TZM.bl cells [21]: 0.232 µg/mL
- IC80, neutralization titer in TZM.bl cells [21]: 1.07 µg/mL
- MPI, neutralization in TZM.bl cells [21]: 100
- IC50, neutralization titer in TZM.bl cells [22]: 17.9 µg/mL
- IC80, neutralization titer in TZM.bl cells [22]: > 50 µg/mL
- MPI, neutralization in TZM.bl cells [22]: 65
- neutralization IC50 [23]: 0.044 µg/mL
- neutralization IC80 [23]: 0.163 µg/mL
- neutralization MPI [23]: 100

Substance: N49P7.2 (antibody)
- IC50 [27]: 0.03 µg/mL
- IC80 [27]: 0.088 µg/mL
- MPI [27]: 100
- IC50 [28]: 0.033 µg/mL
- IC80 [28]: 0.129 µg/mL
- MPI [28]: 100
- IC50 [24]: 0.289 µg/mL
- IC80 [24]: 1.26 µg/mL
- MPI [24]: 100
- IC50 [29]: 0.1 µg/mL
- IC80 [29]: 0.289 µg/mL
- MPI [29]: 100
- IC50 [25]: 0.381 µg/mL
- IC80 [25]: 1.58 µg/mL
- MPI [25]: 100
- IC50 [26]: 0.377 µg/mL
- IC80 [26]: 2.03 µg/mL
- MPI [26]: 99
- IC50 [30]: 0.023 µg/mL
- IC80 [30]: 0.103 µg/mL
- MPI [30]: 100
- IC50 [31]: 0.051 µg/mL
- IC80 [31]: 0.215 µg/mL
- MPI [31]: 100
- IC50 [32]: 0.052 µg/mL
- IC80 [32]: 0.15 µg/mL
- MPI [32]: 100

Substance: N49P9 (antibody)
- IC50 [33]: 0.119 µg/mL
- IC80 [33]: 0.575 µg/mL
- MPI [33]: 100
- IC50 [13]: 0.133 µg/mL
- IC80 [13]: 0.605 µg/mL
- MPI [13]: 100
- IC50 [34]: 0.051 µg/mL
- IC80 [34]: 0.247 µg/mL
- MPI [34]: 100
- IC50 [16]: 0.154 µg/mL
- IC80 [16]: 0.519 µg/mL
- MPI [16]: 99
- IC50 [23]: 0.036 µg/mL
- IC80 [23]: 0.123 µg/mL
- MPI [23]: 100
